Measured values taken from patent US20250032566A1 (YEDA RESEARCH AND DEVELOPMENT, published 2025).

Key:
[1] = target: T1, ThsA (Thoeris defense system protein) (UniProt J8G6Z1 1-476); test: His-tag pulldown on Ni-NTA magnetic beads from E. coli lysate co-expressing TAD1-His, ThsA and ThsB; SDS-PAGE
T1 construct: Expressed from pBAD as a ThsA-ThsB operon in E. coli MG1655; also called Thoeris (ThsA/B)
T1 sequence: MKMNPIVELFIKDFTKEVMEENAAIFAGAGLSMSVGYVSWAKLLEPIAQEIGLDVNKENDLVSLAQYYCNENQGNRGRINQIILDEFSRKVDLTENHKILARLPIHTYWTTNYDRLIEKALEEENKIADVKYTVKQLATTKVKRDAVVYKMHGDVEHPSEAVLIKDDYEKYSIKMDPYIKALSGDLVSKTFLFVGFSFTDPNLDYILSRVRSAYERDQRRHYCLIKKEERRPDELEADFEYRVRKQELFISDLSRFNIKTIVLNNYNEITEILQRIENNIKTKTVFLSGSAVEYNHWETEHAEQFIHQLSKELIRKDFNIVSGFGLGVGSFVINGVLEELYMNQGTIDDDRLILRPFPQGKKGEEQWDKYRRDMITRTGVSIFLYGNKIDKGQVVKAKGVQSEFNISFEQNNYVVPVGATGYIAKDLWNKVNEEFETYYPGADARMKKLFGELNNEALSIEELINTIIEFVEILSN

[2] = target: T2, ThsB (Thoeris defense system TIR-domain protein) (UniProt J8G8J6 1-192); test: as above
T2 construct: Expressed from pBAD as a ThsA-ThsB operon in E. coli MG1655; also called Thoeris (ThsA/B)
T2 sequence: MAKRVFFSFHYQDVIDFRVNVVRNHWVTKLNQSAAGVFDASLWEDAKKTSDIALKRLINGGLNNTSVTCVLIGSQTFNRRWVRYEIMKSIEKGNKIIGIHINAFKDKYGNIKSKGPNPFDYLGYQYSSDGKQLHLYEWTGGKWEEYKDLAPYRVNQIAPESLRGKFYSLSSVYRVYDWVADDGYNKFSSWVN

B1: TAD1 (Thoeris Anti Defense 1) from phage SBSphiJ7 with a C-terminal His-tag (other)
chain: MRELKHELLPTRHTQVFHEDKDKMEFNAPHHFVVVPAGSPLVDQQIHYGRGGNSKKVTVKDFAGKLATVNFQLGPVTEHGANGVMNEDLIAMVITRLQYFQNSEFNCRENAMAITKLEEALMWLNKRTAEREQRGVEGTHEK
notes: Co-expressed with ThsA and ThsB in E. coli MG1655 and pulled down on Ni-NTA magnetic beads; also called TAD1-His; His-TAD1; not shown: C-terminal His-tag
binding result [1]: no binding
binding result [2]: no binding
